Data: paper PMC6800506

Target: tau RD containing the disease-associated P301S substitution fused to either CFP or YFP (human) (UniProt P10636)
Assay: FRET or BRET; HEK293T tau biosensor cells with up to 200 nM freshly prepared, oligomeric or fibrillar Aβ, no tau seeds, no transfection reagent; FRET by flow cytometry after 48 h and after 2 weeks

integrated FRET density (IFD): < 10
Substance: tau RD containing the disease-associated P301S substitution fused to either CFP or YFP (from UniProt P10636-8 244-372) (domain or fragment)
